Assay [1] addresses T1, Bacillus subtilis DnaK wild type, 6xHis-tagged (Bacillus subtilis 168, UniProt P17820 1-611, to some extent phosphorylated (phosphotyrosine signal) during heterologous expression in E. coli; residues and extent not told for this preparation).
T1 construct: probably the whole ORF, since Y601 lies near the C-terminus; also called DnaK WT; WT DnaK; source: E. coli (NEB Express Iq), purified (Ni-NTA, desalted on PD-10); not shown: 6xHis, N-terminal, kept
In words: pull-down; 100 ug 6xHis-DnaK (WT or Y601F) and 100 ug Strep-tagged DnaJ or GrpE incubated with 1 ug anti-6xHis antibody (HIS.H8) in 450 uL IP Lysis/Wash Buffer (Pierce Classic IP Kit); captured on Protein A/G agarose; eluates blotted with anti-Strep tag and anti-His tag. The settings on record: both partners purified.

The target of assay [2] is T2, Bacillus subtilis DnaK Y601F, 6xHis-tagged (Bacillus subtilis 168, UniProt P17820 1-611, Y601F, to some extent phosphorylated during heterologous expression in E. coli (on residues other than 601); residues not told for this preparation).
T2 construct: the mutant is described as a version of the same protein in the same vector; source: E. coli (NEB Express Iq), purified (Ni-NTA, desalted on PD-10); not shown: 6xHis, N-terminal, kept
The assay is described as above. To be noted: both partners purified.

B1: Bacillus subtilis DnaJ, Strep-tagged (natural protein)
chain: not shown
notes: Made in a pQE-30 vector in which the His-tag was replaced by a strep-tag (Jers et al., 2010)
For the molecule B1, the binding result in assay [1] and in assay [2] was “binds” each time.

B2: Bacillus subtilis GrpE, Strep-tagged (natural protein, Bacillus subtilis 168, UniProt P15874 1-187, looked up)
chain: MSEEKQTVEQNETEEQEIIEEQAAADEQQEETNESELLQNQINELQGLLEEKENKLLRVQADFENYKRRSRLEMEASQKYRSQNIVTDLLPALDSFERALQVEADNEQTKSLLQGMEMVHRQLVEALKKEGVEAIEAVGQEFDPNLHQAVMQAEDENYGSNIVVEEMQKGYKLKDRVIRPSMVKVNQ
notes: as for B1
With B2, the binding result in assay [1] and in assay [2] was “binds” throughout.

The values above are taken from publication PMC4835898 (Frontiers in Microbiology, 2016).
